Experiments:
[1] = target: plasminogen-binding group A streptococcal M-protein (Streptococcus pyogenes (GAS isolate AP53)); assay: SPR; PAM amine-coupled on a CM-5 chip (up to 250 RU); Pg flowed at 0-50 nM (hPg[D219N] up to 300 nM); 25 °C; HBS-EP+ (10 mM Na-Hepes/150 mM NaCl/3 mM EDTA/0.05% polysorbate 20, pH 7.4); 1:1 Langmuir fit; KD from koff/kon
[2] = target: hHC-mLC (human heavy chain-mouse light chain) chimeric plasminogen (human | mouse) (UniProt P00747); assay: SPR; each Pg amine-coupled on a CM-5 chip (~1200 RU); SK1 flowed at 0-0.25 uM, SK2b at 0-2 uM; 25 °C; HBS-EP+ with 50 uM p-nitrophenyl-p'-guanidinobenzoate; 1:1 Langmuir fit; KD from koff/kon
[3] = target: hPg[D219N] (human Pg with a [D219N] mutation) (human); assay: as above
[4] = target: human plasminogen (human); assay: as above
[5] = target: mHC-hLC (mouse heavy chain-human light chain) chimeric plasminogen (mouse | human) (UniProt P00747); assay: as above
[6] = target: mouse plasminogen (mouse); assay: as above
[7] = target: hPg[D219N] (human Pg with a [D219N] mutation) (human)
[8] = target: human plasminogen (human)
[9] = target: mHC-hLC (mouse heavy chain-human light chain) chimeric plasminogen (mouse | human) (UniProt P00747)

Sequence of plasminogen-binding group A streptococcal M-protein (Streptococcus pyogenes (GAS isolate AP53)) (P49054 30-380 limits assumed): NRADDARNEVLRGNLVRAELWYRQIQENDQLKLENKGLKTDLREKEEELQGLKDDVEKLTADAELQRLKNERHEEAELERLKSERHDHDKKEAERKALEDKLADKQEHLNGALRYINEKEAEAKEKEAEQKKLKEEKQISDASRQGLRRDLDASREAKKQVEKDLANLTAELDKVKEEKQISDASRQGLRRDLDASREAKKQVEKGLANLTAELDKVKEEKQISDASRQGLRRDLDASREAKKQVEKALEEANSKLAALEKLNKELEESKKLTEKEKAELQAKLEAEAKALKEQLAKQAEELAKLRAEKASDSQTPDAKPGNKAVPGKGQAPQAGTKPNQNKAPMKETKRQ

Substance | Kd [1] [nM] | koff [1] [s⁻¹] | kon [1] [M⁻¹ s⁻¹] | Kd [2] [nM] | koff [2] [s⁻¹] | kon [2] [M⁻¹ s⁻¹] | Kd [3] [nM] | koff [3] [s⁻¹] | kon [3] [M⁻¹ s⁻¹] | Kd [4] [nM] | koff [4] [s⁻¹] | kon [4] [M⁻¹ s⁻¹] | Kd [5] [nM] | koff [5] [s⁻¹] | kon [5] [M⁻¹ s⁻¹] | Kd [6] [nM] | koff [6] [s⁻¹] | kon [6] [M⁻¹ s⁻¹] | further results
hHC-mLC (human heavy chain-mouse light chain) chimeric plasminogen (from UniProt P00747 20-580) | 3 | 0.0012 | 390000 | – | – | – | – | – | – | – | – | – | – | – | – | – | – | – | –
human plasminogen (natural protein) | 2.2 | 0.0006 | 270000 | – | – | – | – | – | – | – | – | – | – | – | – | – | – | – | –
mHC-hLC (mouse heavy chain-human light chain) chimeric plasminogen (from UniProt P00747 581-810) | 16 | 0.0038 | 240000 | – | – | – | – | – | – | – | – | – | – | – | – | – | – | – | –
mouse plasminogen (natural protein) | 14 | 0.0033 | 260000 | – | – | – | – | – | – | – | – | – | – | – | – | – | – | – | –
streptokinase SK1 (natural protein) | – | – | – | 1.9 | 0.0059 | 3.03e+06 | 0.4 | 0.0005 | 1.48e+06 | 0.9 | 0.0015 | 1.65e+06 | 1 | 0.0016 | 1.57e+06 | 6.1 | 0.0102 | 1.65e+06 | –
streptokinase SK2b (natural protein) | – | – | – | 187 | 0.0014 | 8000 | 73 | 0.0012 | 17000 | 85 | 0.0015 | 18000 | 202 | 0.0016 | 8000 | 240 | 0.0016 | 6000 | % active site formation in the SK2b-Pg complex (MUGB cleavage), with saturating PAM (5 uM) [7]: 86%; % active site formation in the SK2b-Pg complex (MUGB cleavage), without PAM [7]: 66%; % active site formation in the SK2b-Pg complex (MUGB cleavage), with saturating PAM (5 uM) [8]: 78%; % active site formation in the SK2b-Pg complex (MUGB cleavage), without PAM [8]: 19%; % active site formation in the SK2b-Pg complex (MUGB cleavage), with saturating PAM (5 uM) [9]: 33%; % active site formation in the SK2b-Pg complex (MUGB cleavage), without PAM [9]: 18%
